Measured values taken from paper PMC6131064.

Columns and labels:
[1] = substrate: CC(=O)CC(=O)SCCNC(=O)CCNC(=O)[C@H](O)C(C)(C)COP(=O)(O)OP(=O)(O)OC[C@H]1O[C@@H](n2cnc3c(N)ncnc32)[C@H](O)[C@@H]1OP(=O)(O)O; assay: thiolysis, decrease in A303 of Mg-keto-acyl-CoA complex, Michaelis-Menten fit; type: biochemical, Cupriavidus necator; conditions: C4 thiolysis, 200 μM CoASH, 10 mM MgCl2, 100 mM Tris pH 7.0
[2] = substrate: CCCC(=O)CC(=O)SCCNC(=O)CCNC(=O)[C@H](O)C(C)(C)COP(=O)(O)OP(=O)(O)OC[C@H]1O[C@@H](n2cnc3c(N)ncnc32)[C@H](O)[C@@H]1OP(=O)(O)O; assay: as above; type: biochemical, Cupriavidus necator; conditions: C6 thiolysis, 200 μM CoASH, 10 mM MgCl2, 100 mM Tris pH 7.0

Protein | Km [1] [µM] | kcat [1] [s⁻¹] | kcat/Km [1] [M⁻¹ s⁻¹] | Km [2] [µM] | kcat [2] [s⁻¹] | kcat/Km [2] [M⁻¹ s⁻¹]
BktB (Cupriavidus necator H16; M158A) (protein) MTREVVVVSGVRTAIGTFGGSLKDVAPAELGALVVREALARAQVSGDDVGHVVFGNVIQTEPRDMYLGRVAAVNGGVTINAPALTVNRLCGSGLQAIVSAAQTILLGDTDVAIGGGAESMSRAPYLAPAARWGARMGDAGLVDMMLGALHDPFHRIHAGVTAENVAKEYDISRAQQDEAALESHRRASAAIKAGYFKDQIVPVVSKGRKGDVTFDTDEHVRHDATIDDMTKLRPVFVKENGTVTAGNASGLNDAAAAVVMMERAEAERRGLKPLARLVSYGHAGVDPKAMGIGPVPATKIALERAGLQVSDLDVIEANEAFAAQACAVTKALGLDPAKVNPNGSGISLGHPIGATGALITVKALHELNRVQGRYALVTMCIGGGQGIAAIFERI | 14.1 | 4.63 | 328000 | 17 | 16.7 | 982000
BktB (Cupriavidus necator H16) (protein) MTREVVVVSGVRTAIGTFGGSLKDVAPAELGALVVREALARAQVSGDDVGHVVFGNVIQTEPRDMYLGRVAAVNGGVTINAPALTVNRLCGSGLQAIVSAAQTILLGDTDVAIGGGAESMSRAPYLAPAARWGARMGDAGLVDMMLGALHDPFHRIHMGVTAENVAKEYDISRAQQDEAALESHRRASAAIKAGYFKDQIVPVVSKGRKGDVTFDTDEHVRHDATIDDMTKLRPVFVKENGTVTAGNASGLNDAAAAVVMMERAEAERRGLKPLARLVSYGHAGVDPKAMGIGPVPATKIALERAGLQVSDLDVIEANEAFAAQACAVTKALGLDPAKVNPNGSGISLGHPIGATGALITVKALHELNRVQGRYALVTMCIGGGQGIAAIFERI | 17.5 | 148 | 8.45e+06 | 15.2 | 4.06 | 267000
